Results on two molecules are retold here after publication PMC9408559, “Genome-Wide Analysis of the RAV Gene Family in Wheat and Functional Identification of TaRAV1 in Salt Stress”.

The target in the data set is TaRAV1 (GST fusion) (Triticum aestivum, UniProt A0A3B6A018 1-392). Nature of the data set: EMSA; LightShift Chemiluminescent EMSA kit (Pierce), manufacturer's protocol; buffer, salt, pH and temperature not given. As to conditions: protein: recombinant; tags: GST; label: biotin. On the technique in general: In EMSA bound probe runs differently from free probe, usually more slowly.
Chain of TaRAV1 (GST fusion) (A0A3B6A018 entry or part of it): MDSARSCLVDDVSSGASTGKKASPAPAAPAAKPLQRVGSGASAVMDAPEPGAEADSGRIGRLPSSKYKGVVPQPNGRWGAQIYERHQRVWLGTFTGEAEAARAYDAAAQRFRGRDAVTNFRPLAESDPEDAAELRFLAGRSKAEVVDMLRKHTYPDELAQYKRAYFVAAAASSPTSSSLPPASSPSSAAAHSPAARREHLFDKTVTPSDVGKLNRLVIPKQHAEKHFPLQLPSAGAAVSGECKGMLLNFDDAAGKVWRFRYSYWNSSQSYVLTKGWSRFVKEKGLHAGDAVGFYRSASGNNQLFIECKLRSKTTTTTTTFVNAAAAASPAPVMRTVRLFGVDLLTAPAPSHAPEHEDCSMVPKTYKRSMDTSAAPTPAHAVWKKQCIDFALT

B1: probe with mutated CAACA and CACCTG elements (dsDNA)
DNA 1: CGGCATGTATAAACAATAGACTCGACGGCATGTATAAACAATAGAC
DNA 2: GTCTATTGTTTATACATGCCGTCGAGTCTATTGTTTATACATGCCG
As to B1, the binding result is recorded as “no binding”.

B2: probe with CAACA and CACCTG elements (dsDNA)
DNA 1: CGGCAACAATAAACACCTGACTCGACGGCAACAATAAACACCTGAC
DNA 2: GTCAGGTGTTTATTGTTGCCGTCGAGTCAGGTGTTTATTGTTGCCG
As to B2, the binding result is on record as “binds”.
